The nanobody polyreactivity screen of Harvey et al. (2022)

Assay: yeast display, Sf9 membrane polyspecificity reagent, FACS + sequencing; frameworks hold sequencing errors
Method in brief: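 Nanobodies came from a synthetic yeast display library in Saccharomyces cerevisiae BJ5465, induced with galactose for 36–48 hours and stained for 1 hour at 4 °C with 10% biotinylated, detergent-solubilized Sf9 membrane reagent. Cells were enriched on streptavidin microbeads and then FACS-sorted, with low and high (top ~1%) gates set on anti-HA fluorescence for expression and streptavidin fluorescence for reagent binding. Each polyreactivity label reflects the gate a clone came from. Genes were amplified by colony PCR, sequenced by MiSeq 2 × 250 and filtered by CDR length.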

| Sequence | polyreactivity (PSR sort gate) |
| --- | --- |
| QVQLVESGGGLVQAGGSLRLSCAASGRTFPYYAMGWYRQATGKERELVARIRSDGSTNYADSVKGRFTISRDNANNTVYLQMNSLKPEDTAVYYCAGKPYPSLFFHYGYWGQCTQVTVSS | low polyreactivity |
| QFQLLESGGGLVQAAGSLRLSCAASGGIFRNYAMGWYRKAPGKERELVAAITSSGTSTYYADSVNGRFTISRDNAKNTVYLQMNSLKPEDTAVYYFAADVTARYDYWGQGTQVTVSS | high polyreactivity |
| QVQLVESGGGLVQAGGSLRLSCAASGRIFTGYAMGWYRQAPGKERELVAAISRGGSTNYADSVKGRFTISRDNAKNTVFLQMNSLKPEDTAVYYCAAGVHWDRGDYWGQGTQVTVSS | low polyreactivity |
| QVQLVESGGGLDQAGGSLRLSCAASGNIVYNGMGWYRQAPGKERELVAAIRGSGGRTYADSVKGRFTISRDNAKNTVYLQMNSLKPEDTAVYYCATRRWYAYGVYYWGQGTQVTVSS | high polyreactivity |
| QVQLVESGGGLVQAGGSLRLSCAASGYISWAYVMGWYIQAPGKERELVAAISSGTSTYYADSVKGRFTISRDNAKNTVYLQMNSLKPEDTAVYYCAAYYYSYPTNGGYGYWGQGTQVTVSS | low polyreactivity |
| QVQLVESGGGLVQAGGSLRLSCAASGFTFNNYAMGWYRQAPGKERELVAAISSGAGTYYADSVKGRFTISRDNAKNTVYLQMNSLNPVDTSVDYCNASLKYQGRTRITYRDDYWGQGTQVTVSS | low polyreactivity |
| QVQLVESGGGLVQAGGSLRLSCAASGRTFYDNAMGWYRQAPGKERELVAVISRSGSTYYADSVKGRFTISRDNAKNTVYLQMNSLKPEDTAVYYCARRGVWGVTYSRLYHWGQGTLVTVSS | high polyreactivity |
| QVQLVESGGGLVQAGGSLRLSCAASGFTFHYYTMGWYRQAPGKDRELVATIRWSAGSTYYADSVKGRFTISRDNAKNTVYLQMNSLKPEDTAVYYCAVRSLRVDKYGYWGQGTQVTVSS | high polyreactivity |
| QVHLVESGGGLVQAGGSLRLSCAASGSTVYNAMGWYRQAPGKERELVAVITDSDGSTYYADSVKGRFTISRDNAKNTVYLQMNSLKPEDTAVYYCAVTAIALYYSSGYYWGQGTQVTVSS | low polyreactivity |
| QVQLVESGGGLVQAGGSLRLSCAASGGIFSYYAMGWYRQAPGKEREFVAAIDWGGGSTYYADSVKGRFTISRDNAKNTVYFQMNSLKPEDTAVYYCAAEIYPIGWDDYDYWGQGTQVTVSS | low polyreactivity |
| QVQLVESGGGLVQAGGSLRLSCAASGYIFDRYAMGWYRQAPGKERELVAAISGRGGSTYYADSVKGRFTISRDNAKNTVYLQMNSLKPEDTAVYYCARDVYVRIGQRARYDSWGQGTQVTVSS | high polyreactivity |
| QVQLVESGGGLVQAGGSLRLSCAASGFTFRWYAMGWYRQEPGKERELVAAITSSGGRTYYADSVKGRFTISRDNAKNTVYLQMNSMKPEDTAVYYCATDLRTRKYDYWGQGTQVTVSS | high polyreactivity |
| QVQLVESGGGLVQAGGSLRLSCAASGRTSSIYTMGWYRQAPGKERELVAAIRGRGGNTYYADSVKGRFTISRDYAKNTVYLLMNSLKPEDTAVYYCNAKPQGVGLYRYEYWGQGTQVTVSS | high polyreactivity |
| QVQLVESGGGLVQAGGSLRLSCAASGLTIWRYAMGWYRQAPGKEREFVATISQNGGRTYYADSVKGRFTISRDNAKNTVYLQMQSLKPEDTAVYYCAADDWRWGYDYWGQGTQVTVSS | high polyreactivity |
| QVQLVESGGGLVNAGGSLRLICDASGLIFYKNAMGWYRQAPGKERELVAAISWRDGRTYYADSVKGRFTISRDNAKNTVYLQMISLIPEDSAVYYCNAVRGITSYDYYYWGQGTQVTVSS | high polyreactivity |
| QVQLQERAAWCRRAGSLRLSFAASGNISDYYFMGWYRQAPGKEREIFAAIAPGSNTFFADSVKGRFTISRDNATNTVYLQMNSLNPEDTAVYYCARQGTIYSYDIVYPRLDYWGQGTQVTVSS | low polyreactivity |
| QVQLVESGGGLVQAGGSLRLSCAASGLTLTYYAMGWYRQAPGKERELVAAISRSGGSTHYADSVKGRFTISRDNAKNTVYLQMNSLKPEDTAVYYCNAQQGRYWSAKGYDYWGQGTQVTVSS | high polyreactivity |
| QVQLVESGGGLVQAGGSLRLSCAASGRTFRGNAMGWYRQAPGKESELVAVITASGSTTYADSVKGRFTISRDNAKNTVYLQMNSLKPEDTAVYYCAKYVPWYTLWLGGTDRDYWGQGTQVTVSS | low polyreactivity |
| QVQLVESGGGLVQAGGSLRLSCAASGRIFRGYAMGWYRQAPGKERELVAAISGSGGSTYYADSVKGRFTISRDNAKNTVYLQMNSLKPEDTAVYYCAADQQSTGDWAGDYWGQGTQVTVSS | low polyreactivity |
| QVQLVESGGGIVQAGGSLRLSCAASGIIFWDNAMGWYRQAPGKERELVASINYSGGSTYYADSVKGRFTISRDNAKNTVYLQMNSLKPEDTAVYYCAARTVTLDDWDYAYDYWGQGTQVTVSS | low polyreactivity |
| QVQLVESGGGLVQAGGSLRLSCAASGSIFSYYAMGWYRQAPAKERELVAAISQNACSTYYADSVKGRFTISRDNAKNTVYLQMNSLKPEDTAVYYCNAYSVYVRGEYWGQGTQVNVSS | high polyreactivity |
| QVQLVESGGGLVQAGGSLRLSCSASGSTSGKYAMGWYRQAPGKESELVAGITKGGGGTYYADSVKGRFTISRDNAKNTVYLQMNSLKPEDTAVYYCAKYYGSGYYIYDYWGQGTQVTVSS | low polyreactivity |

| Sequence | polyreactivity (PSR sort gate) |
| --- | --- |
| QVQLVDSGGGLVQAGGSLRLSCAASGSIFSSYVRGWYRQAPGKERELVAAITSRGGSTYYADSVKGRFTISRDNAKNTVYLQMNSLKPEDTAVYYCAKGGTLGGYWGQGTQVTVSS | high polyreactivity |
| QVQLVESGGGLFQEGGSLRISCAPSGSTFGGYVMGWYRQAPGKDRELVAAIRRVGRTYYADSVKGRFTISRDNAKNTVYLQINSLKAEVTAVYYFAADWAGWEGYRMDYWGQGTQVTVSS | low polyreactivity |
| QVQLVESGGGLVQAGGSLRLSCAASGIIFQRNAMGWYRQAPGKERELVAAISASGGSTNYADSVKGRFTISRDNAKNTVSLQMNSLKPEDTAVYYCAAEDDGDFDYWGQGTQVTVSS | low polyreactivity |
| QVQLVESGGGLVLAGGSLRLSCAASGRTFRTYTMGWYRQAPGKERELVAAISYSGGSTYYADSVKGRFTISRDNAKNTVYLQMNSLKPEDTAVYYCAVYQVGWYGLMDYWGEGTQVTVSS | high polyreactivity |
| QVQLVESGGGLVQAGGSLRLSCAASGRIFPYYAMGWYRQAPGKERELVASIRYSAVNTYYADSVKGRFTISRDNAKNTVYVQMNSLKPEDTAVYYCWYTQNTLGNYWGQGTQVTVSS | low polyreactivity |
| QVQLEESGGGLVQAGGSLRLSCAASGSIFVYYRMGWYRQAPGKERELVAAISSGGSTHYADSVKGRFTISRDNAKNTVYLQMNSLKPEDTAFYYRNDRAYGNGMGTGYFGKHRYDYWGQGTQVTVSS | low polyreactivity |
| QVQLVESGGGLVQAGGSLRLSCAASGSTFIYNTMGSYRQAPGKERELVATNTDSSDSTNYADSVKGRFTISRDNAKNTVYLQMNSLKPEDTAVYYCAADGEVDIATYPSQITDYDYWGQGTQVTVSS | low polyreactivity |
| QVQLVESGGGLVQAGGSLRLSCAASGFIFLKYAMGWYRQAPGKERELVASITSTGGSTYYADSVKGRFTISRDNAKNTVYLQMNSQKPEDTAVYYCARDTVPSSDPWYYAWGGFEFDYWGQGTQVTVSS | low polyreactivity |
| QVQLVESWRGLDQAGGSLRLICSASGGIFKGYSMGWFRQAPGKERELVAVISSRVGSTYYADSLKGRFTISRDNEKNTVYLQMNSQKPEHTAVYYCAKRRYAAVNYNYWGQGTQVTVSS | high polyreactivity |
| QVQLVESGGGLVQAGGSLRLTCAASGFIYADNAMGWDRQAPGQERELVAAISGSGGGTYYADSVKGRFTISRDNAKNTVYLQMNSLKPEDTAVYYCAKSQYHRFDYWGQGTQVTVSS | low polyreactivity |
| QVQLVESGGGLLQAGGSLRLSCAASGFTFFIYAMGWYRQAPGKEREFVAAITGSGGSTYYADSVKGRFRISRDNPKNTVYLLMNSLKPEDTAVYYCNKLSYGRSGYWGQGTQVTVSS | high polyreactivity |
| QVQLVESGVGLVQAGGTLRISCAASGSTLPGYAMGWYRPAPGKERELVAAITSRGGTTYYADSVKGRFTISRDNAKNTVYLQMNSLKPEDTAVYYCAAEVYYRSRVYPYYYSYDYWGQGTQVTVSS | high polyreactivity |
| QVQLVESGGGLVQAGGSLRLSCASSGITLRYYAMGWYRQAPGKERELVAAISSGGRTKYADSVKGRFTISRDNAKNTVYLQMNSLKPENTAVSYCGARKPYVTHTIDVLQAHDYWGQGTQVTVSS | high polyreactivity |
| QVQLVESGGGLVQAGGSRRLSWAASGSTFPRNAMGWYRQAPGKERELVAAISSGGSTYYADSVKWRFTISRDNAKNTVYLQMNSLKPEDTAVYYCAARLYWPIIVVDLYGYDYWGEGTQVTVSS | low polyreactivity |
| QVQLVESGGCLVQAGGRLRLSFAASGLTFEQYAMGWYRQAPGKERELVPAISRRGTSTYYADSVKGRFTISRDNAKNTVFLQMNSLKPEDTAVYYCNAGWWYLGSPFDRDYWGQGTQVTVSS | high polyreactivity |
| QVQLVESGGGLVQAGGSLRLSCAASGRTFPFYAMGWYRQAPVKEREFVAAITASGDSTYYADSVKGRFTISRDNAKYTVYLQMNSLKPEDTAVYYCAADLPVWYVTRYDYWGQGTQVTVSS | low polyreactivity |
| QVQLVESGGGLVQAGGSLRLSCAASGSTFTPYAMGWNRQAPGKERELVAAIRRGGSTNYADSVKGRFTISRDNEKNTVYLQMNSLKPEDTAVYYCAATKRRFVKFDYWGQGTQVTVSS | low polyreactivity |
| QVQLQESGGGLVHACGSLRPSCAASGSISDSWRMSWYRQAPGTEREFVAGITWGGTTNYADSVKGRFTISRDNAKNTVYLQMNSLKPEDTAVYYCNARQRTYYRTHRIRHKGNGYWGQGTQVTVSS | low polyreactivity |
| QVQLVESGGGLVQAGGSLRLSCAASVITFGYYAMGWYRQAPGKERELVAAISRRGGNTYYADSVKGRFTISRDIAKNTVYLQMNSLKPEDTAVSYCATRALYWRYGYDYWGQGTQVTVSS | high polyreactivity |
| QVQLVESGGGLVQAGGSLRLSCAASGSTFLYYAMGWYRQAPGKEREFVAAISISGGSTYYADSVKGRFTISRDNAKNTVYLHMNSLKPEDTAVYYFAARKKEYKPGNYWGQGTQVTVSS | low polyreactivity |
| QVQLVESRGGLVQAGGSLRLSCPASGSIFPDNAMGWYRQAPGKERELDAAITRGGSTYYADSEKGRFTISRDNAKNTVYLQMNSLKPEDTAVYYCAVVRYYVSMDNWGQGTQVTVSS | high polyreactivity |
